Source: article PMC5362243, “A rare IL33 loss-of-function mutation reduces blood eosinophil counts and protects from asthma” (PLoS Genetics, 2017)

Biological target: T1, Human ST2-Flag-His (recombinant IL-33R, extracellular domain) (human, UniProt Q01638-1 19-328)
T1 construct: human ST2 (IL1RL1, IL-33 receptor), recombinant protein encompassing the extracellular domain; Captured on the chip through its His tag by an immobilised penta-His antibody; also called IL-33R/ST2; IL1RL1; source: prepared by Amgen
T1 sequence (looked up): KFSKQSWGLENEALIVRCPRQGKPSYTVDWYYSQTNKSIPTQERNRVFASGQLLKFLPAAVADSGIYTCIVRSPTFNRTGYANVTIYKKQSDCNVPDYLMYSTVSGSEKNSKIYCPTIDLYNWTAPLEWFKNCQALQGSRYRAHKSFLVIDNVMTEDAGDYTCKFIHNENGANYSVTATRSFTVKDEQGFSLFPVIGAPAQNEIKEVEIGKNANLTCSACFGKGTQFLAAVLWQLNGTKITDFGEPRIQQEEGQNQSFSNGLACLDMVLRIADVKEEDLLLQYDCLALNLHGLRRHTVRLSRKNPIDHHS
Assay: SPR; Biacore T200, CM5 chip; human ST2-Flag-His captured by amine-coupled penta-His antibody; IL-33 variants injected at 200 nM (180 s association, 300 s dissociation); 25°C, HBS-P (10 mM HEPES pH 7.4, 150 mM NaCl, 0.05% P20); single replicate
Conditions: both partners purified

B1: IL-33 (95-270), wild type cytokine domain (domain or fragment, human, UniProt O95760-1 95-270, looked up)
chain: AFGISGVQKYTRALHDSSITGISPITEYLASLSTYNDQSITFALEDESYEIYVEDLKKDEKKDKVLLSYYESQHPSNESGDGVDGKMLMVTLSPTKDFWLHANNKEHSVELHKCEKPLPDQAFFVLHNMHSNCVSFECKTDPGVFIGVKDNHLALIKVDSSENLCTENILFKLSET
notes: human interleukin-33, residues 95-270 of the 270-residue protein, released by thrombin cleavage from a poly-His fusion (pET24a); Start at residue 95 chosen after the natural processing of IL-33; also called wild type IL-33 (95–270); IL-33 (95–270) (Amgen); source: E. coli, purified (nickel HisTrap, SEC, thrombin cleavage, SEC); not shown: poly-His, N-terminal, cleaved
B1: binds.
